Columns and labels:
[1] = Binding affinity to FGFR
[2] = tested on: Nc1ncnc2c1ncn2[C@@H]1O[C@H](COP(=O)(O)OP(=O)(O)OP(=O)(O)O)[C@@H](O)[C@H]1O; test: Binding affinity to CDK2/cyclin E; format: protein-complex assay
[3] = tested on: Nc1ncnc2c1ncn2[C@@H]1O[C@H](COP(=O)(O)OP(=O)(O)O)[C@@H](O)[C@H]1O; conditions: Saccharomyces cerevisiae
Description: Binding affinity to yeast Hsp90

Nc1ncnc2c1ncn2[C@@H]1O[C@H](COP(=O)(O)OP(=O)(O)OP(=O)(O)O)[C@@H](O)[C@H]1O
Km [1]: 70 µM

Cyclin-dependent kinase 2/cyclin E (Homo sapiens) (from UniProt P24864+P24941+O96020)
Km [2]: 3.6 µM

ATP-dependent molecular chaperone HSP82 (Saccharomyces cerevisiae S288c), P02829
Km [3]: 150 µM

Source: ChEMBL document CHEMBL1268867, “ATPases as drug targets: insights from heat shock proteins 70 and 90” (J Med Chem, 2010)
